“Also recorded” adds a separate entry of the source.
What was measured:
[1] = system: DLD1 colon cancer cells; assay: Alkaline phosphatase-based survey of nuclear penetration; type: cell-based; conditions: DLD1 cells treated one hour; FIG. 5
[2] = system: PTEN-deficient U251 human glioma cells; assay: Phospho-53BP1 foci accumulation (DNA damage), PTEN-deficient cells; type: cell-based
Procedure: A matched pair of PTEN-proficient and deficient U251 human glioma cells were treated with control media or media containing Variant 10, 11, 13, 15, or 16 for twenty-four hours. Cells were then washed, fixed, blocked, and then probed with an anti-phospho-53BP1 antibody overnight. Cells were then washed and incubated with an AlexaFluor555-conjugated secondary antibody. Finally, cells were washed, counterstained with DAPI, and visualized under a fluorescence microscope. Images were saved and evaluated by CellProfiler to determine mean number of phospho-53BP1 foci per cell.
(§1) A matched pair of BRCA2-proficient and deficient DLD1 colon cancer cells and PTEN-proficient and deficient U251 human glioma cells were treated with control media or media containing 10 μM di-scFv variant 13 (SEQ ID NO: 41), 5 nM olaparib, or combination treatment.

[3] = system: PTEN-deficient U87 human glioma cells; assay: Cell viability by Trypan blue exclusion assay and light microscopy; type: cell-based; conditions: PTEN-deficient U87, 7 days after treatment, FIG. 9
Procedure: Cell viability of PTEN-deficient U87 human glioma cells was also assessed following treatment with control media or media containing Variants 10, 13, 15, or 16. Cell viability was determined 7 days after treatment using Trypan blue exclusion assay and by direct visualization of cell morphology by light microscopy.

[4] = system: BRCA2-proficient DLD1 colon cancer cells; assay: Cell viability by Trypan blue exclusion assay, BRCA2-proficient cells; type: cell-based; conditions: BRCA2-proficient DLD1, 7 days, FIG. 10
Procedure: (§2) Next, a matched pair of BRCA2-proficient and deficient DLD1 colon cancer cells was treated with control media or media containing Variants 10, 13, 15, or 16. Cell viability was determined 7 days later by Trypan blue exclusion assay and by direct visualization of cell morphology by light microscopy. […] Representative light microscope images shown the changes in morphology in the BRCA2-deficient cancer cells treated with the variants are shown in FIG. 10, Panel A. Quantitative analysis of the cell survival by Trypan blue exclusion assay is shown in FIG. 10, Panel B.

[5] = system: BRCA2-deficient DLD1 colon cancer cells; assay: Cell viability by Trypan blue exclusion assay, BRCA2-deficient cells; type: cell-based; conditions: BRCA2-deficient DLD1, 7 days, FIG. 10
Procedure: as §2

[6] = system: DLD-1 cells; assay: Nuclear penetration by protein L immunostain of fixed cells; type: cell-based; conditions: FIG. 11, listed as di-scFv (SEQ ID NO: 41)
Procedure: (§3) DLD-1 and MCF-7 cells were treated with control or di-scFv (SEQ ID NO: 41), and nuclear penetration was evaluated by protein L immunostain of fixed cells.

[7] = system: MCF-7 cells; assay: as above; type: cell-based; conditions: FIG. 12, listed as di-scFv (SEQ ID NO: 41)
Procedure: as §3

[8] = system: HDR-proficient DLD1 cells; assay: Selectivity of combination therapy in HDR-proficient cells; type: cell-based; conditions: 5 nM olaparib, 10 μM di-scFv, alone or combined
Procedure: Homology-directed repair (HDR) deficient BRCA2-DLD1 cells and PTEN-U251 cells were treated with control, 5 nM olaparib, 10 μM di-scFv, or 10 μM di-scFv+5 nM olaparib. Surviving fraction was determined by colony formation assay.
It was then determined whether the combination of di-scFv and olaparib is simply universally cytotoxic, regardless of DNA repair status. To evaluate this possibility, HDR-proficient DLD1 cells were treated with the above regimen to confirm selectivity of combination therapy to HDR-deficient malignant cells.

[9] = system: Primary human glioblastoma (GBM) cancer cells; assay: Percentage of live cells by trypan blue staining; type: cell-based; conditions: seven primary human GBM tumour explants, FIG. 14; listed as di-scFv (SEQ ID NO: 41)
Procedure: Primary human glioblastoma (GBM) cancer cells extracted from primary human GBM tumours from patients were treated with control or di-scFv (SEQ ID NO: 41), and percentage of live cells was evaluated by trypan blue staining.

[10] = system: human GBM cancer stem cells (CSCs) grown as tumour spheres; assay: GBM cancer stem cell tumour spheres: penetration and sphere volume; type: cell-based; conditions: listed as di-scFv (SEQ ID NO: 41)
Procedure: GBM cancer stem cells extracted from primary human GBM tumours from patients and grown as spheres were treated with control or di-scFv (SEQ ID NO: 41), and the effect of dose and incubation time on reduction of sphere volume was evaluated by confocal micrographs of DX1-rhodamine cellular penetration into GBM cells. Tumour spheres are recognised as a useful tool for pre-clinical studies as they retain tumour heterogeneity and more closely represent the original patient tumour.

[11] = system: GBM cells extracted from human GBM tumours (intracranial); assay: Orthotopic mouse model of GBM; type: in vivo
Excerpt: An orthotopic mouse model of GBM was generated by intracranial injection of GBM cells extracted from human GBM tumours.

[12] = system: BRCA2-deficient DLD1 colon cancer cells; assay: Phospho-53BP1 foci accumulation, BRCA2-deficient cells; type: cell-based; conditions: FIG. 17
Procedure: as §1

B1: Variant 13: cell penetrating anti-DNA di-scFv variant, amino acid sequence SEQ ID NO: 41 (protein)
scFv: DIQMTQSPSSLSASLGDRATITCRASKTVSTSSYSYMHWYQQKPGQPPKLLIKYASYLESGVPSRFSGSGSGTDFTLTISSLQPEDAATYYCQHSREFPWTFGGGTKVEIKRADAAPGGGGSGGGGSGGGGSEVQLVESGGGLVQPGGSLRLSCAASGFTFSNYGMHWVRQAPGKGLEWVSYISSGSSTIYYADSVKGRFTISRDNAKNSLYLQMNSLRAEDTAVYYCARRGLLLDYWGQGTTVTVSSASTKGPSVFPLAPLESSGSDIQMTQSPSSLSASLGDRATITCRASKTVSTSSYSYMHWYQQKPGQPPKLLIKYASYLESGVPSRFSGSGSGTDFTLTISSLQPEDAATYYCQHSREFPWTFGGGTKVEIKRADAAPGGGGSGGGGSGGGGSEVQLVESGGGLVQPGGSLRLSCAASGFTFSNYGMHWVRQAPGKGLEWVSYISSGSSTIYYADSVKGRFTISRDNAKNSLYLQMNSLRAEDTAVYYCARRGLLLDYWGQGTTVTVSS
modifications: Variant 13
nuclear penetration (histogram of cell counts versus nuclear staining intensity) relative to the yeast prototype [1]: notable right shift and narrowing of distributions relative to the yeast prototype
percentage of P53BP1-positive cells ([2]; HDR-deficient U251, 24 hour treatment, FIG. 17): increased
mean number of phospho-53BP1 foci per cell ([2]; PTEN-deficient U251, twenty-four hours, FIG. 8): increased the number of foci
mean number of phospho-53BP1 foci per cell ([2]; PTEN-deficient U251, 10 μM di-scFv, 5 nM olaparib, FIG. 17): increased the number of phospho-53BP1 foci
cell viability relative to control treated cells [3]: caused reductions in cell viability
cell viability (toxicity) [4]: not toxic
cell viability (cell killing) [5]: killed by the variants
nuclear penetration [6]: successfully penetrated; also recorded: penetrates HDR deficient DLD-1 colon cancer cell nuclei
nuclear penetration [7]: successfully penetrated; also recorded: penetrates HDR deficient MCF-7 breast cancer cell nuclei
cell death [8]: No effect on cell death
cancer cell death (percentage of live cells) [9]: Five of the seven glioblastoma tumour explants treated with di-scFv (SEQ ID NO: 41) showed significant cancer cell death; also recorded: kills primary human glioblastoma cells
cellular penetration into GBM spheres ([10]; confocal micrographs, FIG. 15A): demonstrated cellular penetration in GBM spheres; also recorded: penetrates human glioblastoma spheres
sphere volume ([10]; effect of dose and incubation time, FIG. 15B, C): reduced sphere volume in dose-dependent and time-dependant manner; also recorded: reduces sphere volume in a time-dependent (B) and dose-dependent (C) manner
incidence of apoptosis in tumours (TUNEL staining) ([11]; FIG. 16B): increased incidence of apoptosis
toxicity or weight loss associated with treatment ([11]; body weight profile, FIG. 16D): No toxicity or weight loss
median survival longer than controls ([11]; controls median 72 days): more than 20%
mean survival ([11]; group of 7 mice, FIG. 16E): 83 days
median survival ([11]; group of 7 mice, FIG. 16E): 87 days
di-scFv in adjacent normal brain cells (protein L immunostaining) ([11]; normal brain, FIG. 16C): not evident
crossing of the blood brain barrier ([11]; suggested by tumour size reduction and TUNEL staining): successfully crossed the blood brain barrier
reduction of glioblastoma tumour size versus control mice ([11]; tail vein injection, brain sections, FIG. 16A): more than 40%
di-scFv in GBM tumour cells (protein L immunostaining) ([11]; tumour tissue, FIG. 16C): detected in the nuclei of GBM tumour cells
mean number of phospho-53BP1 foci per cell ([12]; BRCA2-deficient DLD1, 10 μM di-scFv, 5 nM olaparib): increased the number of phospho-53BP1 foci
percentage of P53BP1-positive cells ([12]; HDR-deficient DLD1, 24 hour treatment): increased

— patent US20240052063A1, “Binding Proteins 2” (Nucleus Therapeutics Pty. Ltd., priority 2017, published 2024)
